Results reported in PMC6509359 (Molecular Cell, 2019).
Positions count from the first letter of the chain named. In names and notes the source's numbering stands. Several values for one entry are separate records, joined by “and”; a condition that tells them apart may be missing. Identical values can stand only once.

B1: Human USP25 (157-720) (domain or fragment, UniProt Q9UHP3 157-720, looked up)
chain: NPYDRKRQDKAPVGLKNVGNTCWFSAVIQSLFNLLEFRRLVLNYKPPSNAQDLPRNQKEHRNLPFMRELRYLFALLVGTKRKYVDPSRAVEILKDAFKSNDSQQQDVSEFTHKLLDWLEDAFQMKAEEETDEEKPKNPMVELFYGRFLAVGVLEGKKFENTEMFGQYPLQVNGFKDLHECLEAAMIEGEIESLHSENSGKSGQEHWFTELPPVLTFELSRFEFNQALGRPEKIHNKLEFPQVLYLDRYMHRNREITRIKREEIKRLKDYLTVLQQRLERYLSYGSGPKRFPLVDVLQYALEFASSKPVCTSPVDDIDASSPPSGSIPSQTLPSTTEQQGALSSELPSTSPSSVAAISSRSVIHKPFTQSRIPPDLPMHPAPRHITEEELSVLESCLHRWRTEIENDTRDLQESISRIHRTIELMYSDKSMIQVPYRLHAVLVHEGQANAGHYWAYIFDHRESRWMKYNDIAVTKSSWEELVRDSFGGYRNASAYCLMYINDKAQFLIQEEFNKETGQPLVGIETLPPDLRDFVEEDNQRFEKELEEWDAQLAQKALQEKLLASQ
notes: also called USP25 catalytic domain; source: E. coli Rosetta2(DE3)pLacI, purified (HisTrap, 3C protease, Resource Q, size exclusion)
B2: G. gallus USP28 (143-706) (domain or fragment, chicken (Gallus gallus), UniProt Q5ZID5 143-706, looked up)
chain: SKQSDWKRVGDWPVGMKNIGNTCWFSAVIQSLFQLPQFRRLVLSYSFPPNVLESCRTRTGKRNIAFMQELQCLFALMLGTRRKFVDPSAALELLRDAFKSTEEQQQDVSEFTHKLLDWLEDAFQLAVNVRSPGDKSENPMVQLFYGTFLTEGVHEGNTFSKIETFGQYPLQVNGYRNLNECLEGAMVEGEMDEETATQSVKYVQERWFTKLPPVLTFELSRFEFNQSLGQPEKIHTKLEFPQTIFMDRYLYCSKELIQTKREEMKKLKEKMLVLQQKLERYMKYGSGPARFPLPDMLQYVLEFITTKPAGAVSSACVSSTEDSQMMDRQSQGESLILGTPSQPDSMLDGKDGKPEDEAVLLANSSPQQQLNAPLQPSEPPAEMSDCPAPHVVSEEEMNLVTTCLQRWRNEIEQDVRDLKESIARVSLSIDEMYSDPHLQQVPYHLHAVLVHEGQANAGHYWAFIYDQPRKSWLKYNDISVTESSWEELERDSFGGLRNASAYCLMYISDKVSHVVAGEGDGSEVGQFQKEVEALPPELRRYIQEDNWRLEQEAEEWEEEQSCKI
notes: USP28, chicken, residues 143-706; also called USP28 catalytic domain from chicken; source: E. coli Rosetta2(DE3)pLacI, purified (HisTrap, 3C protease, Resource Q, size exclusion)
B3: M. musculus USP25 (1-1055) (enzyme, mouse (Mus musculus), UniProt P57080 1-1055, looked up)
chain: MTVEQNVLQQSAAQKHQQTFLNQLREITGINDAQILQQALKDSNGNLELAVAFLTAKNAKTPPQEETGYYQTALPGNDRYISVGSQADANVIDLTGDDKDDLQRAIALSLAESNRAFRETGITDEEQAISRVLEASIAENKACLKRTPIEVWRDSRNPYDRKRQEKAPVGLKNVGNTCWFSAVIQSLFNLLEFRRLVLNYKPPSNAQDLPRNQKEHRNLPFMRELRYLFALLVGTKRKYVDPSRAVEILKDAFKSNDSQQQDVSEFTHKLLDWLEDAFQMKAEEETDEEKPKNPMVELFYGRFLAMGVLEGKKFENTEMFGQYPLQVNGFKDLHECLEAAMIEGEIESLHSDNSGKSGQEHWFTELPPVLTFELSRFEFNQALGRPEKIHNKLEFPQVLYLDRYMHRNREITRIKREEIKRLKDYLTVLQQRLERYLSYGSGPKRFPLVDVLQYALEFASSKPVCTSPVDDIDASSSASGPLPSQSLPSTTEQQGPCASDLPGSSSPASGAALPLRSVIHKPFTQSRIPPDLPMHPAPRHITEEELCVLESCLHRWRTEIENDTRDLQESISRIHRTIELMYSDKSMIQVPYRLHAVLVHEGQANAGHYWAYIFDHRESRWMKYNDIAVTKSSWEELVRDSFGGYRNASAYCLMYIDDKAQFLIQEEFNKETGQALVGMETLPPDLRDFVEEDNQRFEKELEEWDTQLAQRSLQEKLLAAPKLREAEASATTAQAGGADYLEQPSRSDLSKHWKEETLRVIAKASHDLEDKGPETVLQSAIKLEYSRLVKLAQEDTPPETDYRLHHVLVYFIQNQAPKKIIEKTLLEQFGDRNLSFDERCHNIMKVAQAKLEMIKPEEVNLEEYEEWHADYKKFRETTMYLITGLENFQRESYIDSLLFLLCAYQNNKELLSKGPYRGHDGELISHYRRECLLKLNEQAAELFESGEDGDVNNGLIIMNEFIVPFLPLLLVDDMEEKDILAVEDMRNRWCSYLGQEMEANLQEKLTDFLPKLLDCSTEIKGFHEPPKLPSYSAHELCERFARIMLSLSRTPADGR
notes: dimer-tetramer equilibrium; also called full-length mouse USP25; source: E. coli Rosetta2(DE3)pLacI, purified (HisTrap, 3C protease, Resource Q, size exclusion)
B4: Chimera: Human USP25 (157-[AIM of Human USP28]-714) (domain or fragment)
chain: NPYDRKRQDKAPVGLKNVGNTCWFSAVIQSLFNLLEFRRLVLNYKPPSNAQDLPRNQKEHRNLPFMRELRYLFALLVGTKRKYVDPSRAVEILKDAFKSNDSQQQDVSEFTHKLLDWLEDAFQMKAEEETDEEKPKNPMVELFYGRFLAVGVLEGKKFENTEMFGQYPLQVNGFKDLHECLEAAMIEGEIESLHSENSGKSGQEHWFTELPPVLTFELSRFEFNQALGRPEKIHNKLEFPQVLYLDRYMHRNREITRIKREEIKRLKDYLTVLQQRLERYLSYGSGPKRFPLVDVLQYALEFASSKPVCTSPVDDIDASSPPSGSIPSQTLPSTTEQQGALSSELPSTSPSSVAAISSSLPKSKPLTSSRSSPDLPMHPAPRHITEEELSVLESCLHRWRTEIENDTRDLQESISRIHRTIELMYSDKSMIQVPYRLHAVLVHEGQANAGHYWAYIFDHRESRWMKYNDIAVTKSSWEELVRDSFGGYRNASAYCLMYINDKAQFLIQEEFNKETGQPLVGIETLPPDLRDFVEEDNQRFEKELEEWDAQLAQKALQE
B5: M. musculus USP25 (157-715) (domain or fragment, mouse (Mus musculus), UniProt P57080 157-715, looked up)
chain: NPYDRKRQEKAPVGLKNVGNTCWFSAVIQSLFNLLEFRRLVLNYKPPSNAQDLPRNQKEHRNLPFMRELRYLFALLVGTKRKYVDPSRAVEILKDAFKSNDSQQQDVSEFTHKLLDWLEDAFQMKAEEETDEEKPKNPMVELFYGRFLAMGVLEGKKFENTEMFGQYPLQVNGFKDLHECLEAAMIEGEIESLHSDNSGKSGQEHWFTELPPVLTFELSRFEFNQALGRPEKIHNKLEFPQVLYLDRYMHRNREITRIKREEIKRLKDYLTVLQQRLERYLSYGSGPKRFPLVDVLQYALEFASSKPVCTSPVDDIDASSSASGPLPSQSLPSTTEQQGPCASDLPGSSSPASGAALPLRSVIHKPFTQSRIPPDLPMHPAPRHITEEELCVLESCLHRWRTEIENDTRDLQESISRIHRTIELMYSDKSMIQVPYRLHAVLVHEGQANAGHYWAYIFDHRESRWMKYNDIAVTKSSWEELVRDSFGGYRNASAYCLMYIDDKAQFLIQEEFNKETGQALVGMETLPPDLRDFVEEDNQRFEKELEEWDTQLAQRSLQE
notes: also called USP25 catalytic domain from mouse; source: E. coli Rosetta2(DE3)pLacI, purified (HisTrap, 3C protease, Resource Q, size exclusion)
B6: HA-USP28 (2-1077) (enzyme, human, UniProt Q96RU2 2-1077, looked up)
chain: TAELQQDDAAGAADGHGSSCQMLLNQLREITGIQDPSFLHEALKASNGDITQAVSLLTDERVKEPSQDTVATEPSEVEGSAANKEVLAKVIDLTHDNKDDLQAAIALSLLESPKIQADGRDLNRMHEATSAETKRSKRKRCEVWGENPNPNDWRRVDGWPVGLKNVGNTCWFSAVIQSLFQLPEFRRLVLSYSLPQNVLENCRSHTEKRNIMFMQELQYLFALMMGSNRKFVDPSAALDLLKGAFRSSEEQQQDVSEFTHKLLDWLEDAFQLAVNVNSPRNKSENPMVQLFYGTFLTEGVREGKPFCNNETFGQYPLQVNGYRNLDECLEGAMVEGDVELLPSDHSVKYGQERWFTKLPPVLTFELSRFEFNQSLGQPEKIHNKLEFPQIIYMDRYMYRSKELIRNKRECIRKLKEEIKILQQKLERYVKYGSGPARFPLPDMLKYVIEFASTKPASESCPPESDTHMTLPLSSVHCSVSDQTSKESTSTESSSQDVESTFSSPEDSLPKSKPLTSSRSSMEMPSQPAPRTVTDEEINFVKTCLQRWRSEIEQDIQDLKTCIASTTQTIEQMYCDPLLRQVPYRLHAVLVHEGQANAGHYWAYIYNQPRQSWLKYNDISVTESSWEEVERDSYGGLRNVSAYCLMYINDKLPYFNAEAAPTESDQMSEVEALSVELKHYIQEDNWRFEQEVEEWEEEQSCKIPQMESSTNSSSQDYSTSQEPSVASSHGVRCLSSEHAVIVKEQTAQAIANTARAYEKSGVEAALSEVMLSPAMQGVILAIAKARQTFDRDGSEAGLIKAFHEEYSRLYQLAKETPTSHSDPRLQHVLVYFFQNEAPKRVVERTLLEQFADKNLSYDERSISIMKVAQAKLKEIGPDDMNMEEYKKWHEDYSLFRKVSVYLLTGLELYQKGKYQEALSYLVYAYQSNAALLMKGPRRGVKESVIALYRRKCLLELNAKAASLFETNDDHSVTEGINVMNELIIPCIHLIINNDISKDDLDAIEVMRNHWCSYLGQDIAENLQLCLGEFLPRLLDPSAEIIVLKEPPTIRPNSPYDLCSRFAAVMESIQGVSTVTVK
notes: USP28, human, residues 2-1077; also called hemagglutinin (HA)-tagged USP28, wild type; source: HEK293, transfected (pOPINE), in lysate; not shown: HA, N-terminal, kept
B7: Flag-USP25 (2-1055) (enzyme, human, UniProt Q9UHP3 2-1055, looked up)
chain: TVEQNVLQQSAAQKHQQTFLNQLREITGINDTQILQQALKDSNGNLELAVAFLTAKNAKTPQQEETTYYQTALPGNDRYISVGSQADTNVIDLTGDDKDDLQRAIALSLAESNRAFRETGITDEEQAISRVLEASIAENKACLKRTPTEVWRDSRNPYDRKRQDKAPVGLKNVGNTCWFSAVIQSLFNLLEFRRLVLNYKPPSNAQDLPRNQKEHRNLPFMRELRYLFALLVGTKRKYVDPSRAVEILKDAFKSNDSQQQDVSEFTHKLLDWLEDAFQMKAEEETDEEKPKNPMVELFYGRFLAVGVLEGKKFENTEMFGQYPLQVNGFKDLHECLEAAMIEGEIESLHSENSGKSGQEHWFTELPPVLTFELSRFEFNQALGRPEKIHNKLEFPQVLYLDRYMHRNREITRIKREEIKRLKDYLTVLQQRLERYLSYGSGPKRFPLVDVLQYALEFASSKPVCTSPVDDIDASSPPSGSIPSQTLPSTTEQQGALSSELPSTSPSSVAAISSRSVIHKPFTQSRIPPDLPMHPAPRHITEEELSVLESCLHRWRTEIENDTRDLQESISRIHRTIELMYSDKSMIQVPYRLHAVLVHEGQANAGHYWAYIFDHRESRWMKYNDIAVTKSSWEELVRDSFGGYRNASAYCLMYINDKAQFLIQEEFNKETGQPLVGIETLPPDLRDFVEEDNQRFEKELEEWDAQLAQKALQEKLLASQKLRESETSVTTAQAAGDPEYLEQPSRSDFSKHLKEETIQIITKASHEHEDKSPETVLQSAIKLEYARLVKLAQEDTPPETDYRLHHVVVYFIQNQAPKKIIEKTLLEQFGDRNLSFDERCHNIMKVAQAKLEMIKPEEVNLEEYEEWHQDYRKFRETTMYLIIGLENFQRESYIDSLLFLICAYQNNKELLSKGLYRGHDEELISHYRRECLLKLNEQAAELFESGEDREVNNGLIIMNEFIVPFLPLLLVDEMEEKDILAVEDMRNRWCSYLGQEMEPHLQEKLTDFLPKLLDCSMEIKSFHEPPKLPSYSTHELCERFARIMLSLSRTPADGR
notes: tetrameric and dimeric populations; also called FLAG-tagged USP25; ectopically expressed wild-type USP25; source: HEK293, transfected (pOPINE), in lysate; not shown: Flag, N-terminal, kept
B8: Flag-USP25 (2-1055) P521S F522E (enzyme, human, UniProt Q9UHP3 2-1055, looked up)
chain: B7 chain with P520S, F521E
notes: also called USP25 mutated in the AIM (P521S F522E); source: HEK293, transfected (pOPINE), in lysate; not shown: Flag, N-terminal, kept

Columns and labels:
[1] = target: the molecule itself; assay: SEC-MALS; 100 μL of 1-2 mg/mL protein on Superdex 200 10/300, 0.5 mL/min, PBS + 2 mM DTT
[2] = target: T1, ubiquitin-propargylamine, Ub(1-75)-PA (UniProt P0CG48 1-75, C-terminal propargylamine (PA) after residue 75); assay: covalent reaction with the ubiquitin-propargylamine probe; 1.3 eq of His6-3C-Ub(1-75)-PA, 1–4 h at 4°C; complex purified over HisTrap by the probe's tag, 3C protease, gel filtration; details: both partners purified
T1 construct: ubiquitin residues 1-75, C-terminus carries propargylamine (reactive probe); reacts covalently with the DUB; the His6-3C tag was on the probe during the reaction and the HisTrap step and was cut off with 3C protease before gel filtration; also called Ub-PA; His6-3C-Ub(1-75)-PA; source: assembled as described previously (Gersch et al., 2017), > 95% purity by intact protein mass spectrometry; not …

[3] = target: the molecule itself; assay: not stated; oligomeric states of purified orthologs and of full-length proteins, Figures S7A, S7B and S3J
[4] = target: the molecule itself; assay: native gel or EMSA; native PAGE of lysates of HEK293 cells transfected with FLAG- or HA-tagged proteins, immunoblotting; recombinant USP25 tetramer and dimer fractions as size standard

Binder | stoichiometry N [3] | stoichiometry N [4] | other results
B1 |  |  | stoichiometry N [1]: 4; binding result [2]: binds
B2 | 2 |  | 
B3 | 2 and 4 |  | 
B4 |  |  | stoichiometry N [1]: 2
B5 | 4 |  | binding result [2]: binds
B6 |  | 2 | 
B7 |  | 4 and 2 | 
B8 |  | 2 | 
